Test results from patent US8673289B2, “Attenuated uracil auxotroph of an apicomplexan and use thereof” (priority 2007, dated 2014).
Substitutions are numbered along the chain they refer to. Names and notes keep the numbering of the source. Read-outs that look alike come from different tables or passages of the source.

How the values were obtained:
cps1 and cps2 mutants = assay: pyrimidine dependence of cps1 and cps2 replication and plaque formation; assay type: cell-based, Toxoplasma gondii; conditions: relatively low (thymine, thymidine: moderate) concentrations in medium
Source text: However, all of these mutants are somewhat “leaky” in that there was not an absolute growth (replication) dependence on uracil addition to the growth medium for replication. Each of these mutants grows at a moderate (½ of normal) growth rate for the first 2 days following infection of a host cell producing vacuoles that contained 16 to 32 parasites by 3 days post infection. In contrast, RH parasites are lysed out of their primary vacuoles at this time (3 days, >64 parasites). However, the cps mutants slow after 3 days and many parasites never (about ⅓) break out of their primary vacuole. If the primary vacuole breaks, a few parasites can be detected at the site of infection but the infection site always involves a small zone of infection that never forms a visible plaque in a standard 7 day plaque assay. To quantitate growth of these mutants, HFF flasks were inoculated with […] or cps2 parasites (about a multiplicity of infection (MOI) of 1 parasite per 20 HFF cells). After 2 hours of attachment and invasion (all of these mutants have normal attachment and invasion phenotypes as scored by counting percent entered parasites into host cells as a function of time post-inoculation), different concentrations of different pyrimidine compound was added to parallel infected HFF flasks. As a function of time post pyrimidine addition (t=0 hour) the number of parasites per vacuole was scored for 50 vacuoles as described by Fox et al. ((1999) supra). The number of parasite doublings was calculated based on 1 parasite entering each primary vacuole. Thus, 1 doubling=2 parasites per vacuole, 3 doublings=8 parasites per vacuole, and 5 doublings=32 parasites per vacuole. The pyrimidine dependence of cps1 and cps2 replication (doublings of parasites in the vacuole) was plotted graphically. […] The response to thymine and thymidine was additionally informative about the cause of the growth defect in cps1 and cps2. […] This is believed to be caused by the putative defect in the cps1 and cps2 mutants which is a reduced “pool” size of UMP. If UMP pools (ultimately used for RNA and DNA synthesis) are lowered it follows that a resulting decrease in TMP pools is expected since UMP is the precursor of TMP in T. gondii and all other apicomplexan parasites which normally lack TK activity. However, since cps1 and cps2 now express a TK activity carried into the parasite by the p53KOX3-1R plasmid, exemplified by sensitivity of these mutants to ganciclovir (specific to HSV TK), feeding parasites either thymine or thymidine is expected to increase TMP pools. Thus, it appears that moderate levels of thymine or thymidine partially rescue growth of cps1 and cps2 by restoring TMP pools. […] Since the parasite has no mechanism to convert TMP back to UMP there is still a defect in the UMP pool in cps1 and cps2 even with added thymine or thymidine and rescue is never complete. The ability of cps1 and cps2 mutants to form plaques on HFF monolayers in the standard 7 day assay paralleled the pyrimidine dependence of parasite replication in vacuoles.
The cps1 and cps2 mutants were inoculated intraperitoneally (i.p.) into balb/c mice to measure parasite virulence compared to virulent RH parasites. Both mutant cps1 and cps2 had equal virulence as RH parasites in balb/c mice (Jackson Labs), killing all mice within 10 days of i.p. inoculation (group size was four mice per parasite strain). Only 100 parasites (˜50 PFU) of each parasite strain was needed to kill all mice in each group. This pattern of virulence can be understood by re-examining the pyrimidine dependence of cps1 and cps2 growth. Uridine is believed to be the pyrimidine responsible for virulence of cps1 and cps2 in mice. Only 5 μM uridine completely rescues normal plaque size of cps1 and cps2 in vitro. Plasma concentrations of uridine in mice are approximately 5 to 10 μM.

cps1-1 and cps2-1 = assay: pyrimidine rescue of cps1-1 and cps2-1 replication and plaque formation; assay type: cell-based, Toxoplasma gondii; conditions: 36-hour replication assay, HFF
Experimental: No pyrimidine compound at less than 25 μM could rescue plaque formation of cps1-1 or cps2-1. […] Uridine was quite poor at rescue of plaque formation in cps1-1 and cps2-1.
A more detailed growth response to pyrimidine, measured as parasite replications (doublings) was performed for cps1-1 and cps2-1 and compared to the results previously obtained for […]. […] Uridine rescue was poor, with a slow restoration of growth at very high amounts, >400 μM. Deoxyuridine rescue was significant, but again, full growth rate was not restored at any concentration of deoxyuridine. Rescue with uracil was robust, but only in a limited range of concentration. Full restoration of growth rate in cps1-1 and cps2-1 was possible only with uracil added between 200 and 400 μM. […] This phenotype can only be observed in T. gondii pyrimidine auxotroph mutants, not in wild-type parasites with intact de novo pyrimidine synthesis pathways.
The pyrimidine growth dependence of mutant cps1-1 on the pyrimidine salvage pathway was further documented in thymidine interference experiments. Mutant cps1-1 plaques well in 250 μM uracil or deoxyuridine, but not in 1000 μM thymidine. Since thymidine at 1000 μM is known to inhibit approximately 90% of the parasite nucleoside phosphorylase activity specific for cleavage of deoxyuridine (Iltzsch, (1993) J. Euk. Micro. 40:24-28), growth of cps1-1 was tested in combinations of 1000 μM thymidine and 250 μM uracil or 250 μM deoxyuridine. All pyrimidine salvage in T. gondii must pass through uracil and UPRT conversion of uracil to UMP. In contrast, thymidine has no effect on UPRT activity. Thus, if growth of cps1-1 were dependent on deoxyuridine supplementation then replication in this condition may be inhibited by co-supplementing with 1000 μM thymidine. […] Thus, when cps1-1 is grown in deoxyuridine the parasite strictly requires nucleoside phosphorylase activity to cleave deoxyuridine for growth. […] Thus, cps1-1 and cps2-1 rely strictly on pyrimidine salvage enzymes for growth and further, the HFF host cell in vitro cannot supply sufficient pyrimidines for growth of cps1-1 or cps2-1. […] Such potential inhibitors can only be identified using a pyrimidine auxotroph such as provided in the instant invention.
To assess reversion, 10^6 to 10^7 cps1-1 or cps2-1 parasites were periodically inoculated into HFF flasks supplemented with 5 μM uridine. This concentration of uridine is sufficient to rescue the parent strains (cps1 and cps2) of cps1-1 and cps2-1.

E. coli CPS = conditions: cited from earlier work

Molecule: Nc1ccn([C@H]2C[C@H](O)[C@@H](CO)O2)c(=O)n1 [deoxycytidine]
- rescue of growth rate / replication of cps1 and cps2 (cps1 and cps2 mutants): completely rescued
- rescue of replication (doublings) of cps1-1 and cps2-1 (cps1-1 and cps2-1): remained as a single non-replicated parasite

B1: E. c. G359F: E. coli CPS with ammonia tunnel wall mutation G359F (protein, UniProt P0A6F1 1-382; P00968 2-1073, looked up, variant G359F)
Carbamoyl phosphate synthase … 1: MIKSALLVLEDGTQFHGRAIGATGSAVGEVVFNTSMTGYQEILTDPSYSRQIVTLTYPHIGNVGTNDADEESSQVHAQGLVIRDLPLIASNFRNTEDLSSYLKRHNIVAIADIDTRKLTRLLREKGAQNGCIIAGDNPDAALALEKARAFPGLNGMDLAKEVTTAEAYSWTQGSWTLTGGLPEAKKEDELPFHVVAYDFGAKRNILRMLVDRGCRLTIVPAQTSAEDVLKMNPDGIFLSNGPGDPAPCDYAITAIQKFLETDIPVFGICLGHQLLALASGAKTVKMKFGHHGGNHPVKDVEKNVVMITAQNHGFAVDEATLPANLRVTHKSLFDGTLQGIHRTDKPAFSFQGHPEASPFPHDAAPLFDHFIELIEQYRKTAK
Carbamoyl phosphate synthase … 2: PKRTDIKSILILGAGPIVIGQACEFDYSGAQACKALREEGYRVILVNSNPATIMTDPEMADATYIEPIHWEVVRKIIEKERPDAVLPTMGGQTALNCALELERQGVLEEFGVTMIGATADAIDKAEDRRRFDVAMKKIGLETARSGIAHTMEEALAVAADVGFPCIIRPSFTMGGSGGGIAYNREEFEEICARGLDLSPTKELLIDESLIGWKEYEMEVVRDKNDNCIIVCSIENFDAMGIHTGDSITVAPAQTLTDKEYQIMRNASMAVLREIGVETGGSNVQFAVNPKNGRLIVIEMNPRVSRSSALASKATGFPIAKVAAKLAVGYTLDELMNDITGGRTPASFEPSIDYVVTKIPRFNFEKFAGANDRLTTQMKSVGEVMAIGRTQQESLQKALRGLEVGATGFDPKVSLDDPEALTKIRRELKDAGADRIWYIADAFRAGLSVDGVFNLTNIDRWFLVQIEELVRLEEKVAEVGITGLNADFLRQLKRKGFADARLAKLAGVREAEIRKLRDQYDLHPVYKRVDTCAAEFATDTAYMYSTYEEECEANPSTDREKIMVLGGGPNRIGQGIEFDYCCVHASLALREDGYETIMVNCNPETVSTDYDTSDRLYFEPVTLEDVLEIVRIEKPKGVIVQYGGQTPLKLARALEAAGVPVIGTSPDAIDRAEDRERFQHAVERLKLKQPANATVTAIEMAVEKAKEIGYPLVVRPSYVLGGRAMEIVYDEADLRRYFQTAVSVSNDAPVLLDHFLDDAVEVDVDAICDGEMVLIGGIMEHIEQAGVHSGDSACSLPAYTLSQEIQDVMRQQVQKLAFELQVRGLMNVQFAVKNNEVYLIEVNPRAARTVPFVSKATGVPLAKVAARVMAGKSLAEQGVTKEVIPPYYSVKEVVLPFNKFPGVDPLLGPEMRSTGEVMGVGRTFAEAFAKAQLGSNSTMKKHGRALLSVREGDKERVVDLAAKLLKQGFELDATHGTAIVLGEAGINPRLVNKVHEGRPHIQDRIKNGEYTYIINTTSGRRAIEDSRVIRRSALQYKVHYDTTLNGGFATAMALNADATEKVISVQEMHAQIK
modifications: mutation in small subunit
- Effect on CPS or CPSII (E. coli CPS; effect on GATase-CPS coupling): Uncouples GATase & CPS

B2: E. c. H781K: E. coli CPS with K-loop mutation H781K (protein, UniProt P0A6F1 1-382; P00968 2-1073, looked up, variant H781K)
Carbamoyl phosphate synthase … 1: B1 Carbamoyl phosphate synthase … 1 with F359G
Carbamoyl phosphate synthase … 2: B1 Carbamoyl phosphate synthase … 2 with H780K
modifications: mutation in large subunit
- Effect on CPS or CPSII (E. coli CPS; effect on UMP repression): Reduces UMP repression
- Effect on CPS or CPSII (E. coli CPS; effect on ornithine activation): Reduces ornithine activation

B3: E. c. E761A: E. coli CPS with K-loop mutation E761A (protein, UniProt P0A6F1 1-382; P00968 2-1073, looked up, variant E761A)
Carbamoyl phosphate synthase … 1: B1 Carbamoyl phosphate synthase … 1 with F359G
Carbamoyl phosphate synthase … 2: B1 Carbamoyl phosphate synthase … 2 with E760A
modifications: mutation in large subunit
- Effect on CPS or CPSII (E. coli CPS; effect on UMP repression): Abolishes UMP repression
- Effect on CPS or CPSII (E. coli CPS; effect on ornithine activation): Abolishes ornithine activation

B4: E. c. T974A: E. coli CPS with regulatory domain mutation T974A (protein, UniProt P0A6F1 1-382; P00968 2-1073, looked up, variant T974A)
Carbamoyl phosphate synthase … 1: B1 Carbamoyl phosphate synthase … 1 with F359G
Carbamoyl phosphate synthase … 2: B1 Carbamoyl phosphate synthase … 2 with T973A
modifications: mutation in large subunit
- Effect on CPS or CPSII (E. coli CPS; effect on IMP activation): Abolishes IMP activation
- Effect on CPS or CPSII (E. coli CPS; effect on UMP repression): Abolishes UMP repression
- Effect on CPS or CPSII (E. coli CPS; effect on ornithine activation): Reduces ornithine activation
